From patent US20090029376
Changes are numbered by the printed parent chain.

Tests used:
Experiment in all cases: cleavage_in_vitro
[1] = molecular target: T1, SalI-HF R107A (Streptomyces albus G) (UniProt Q53608); conditions: NEB4, 37 C
T1 sequence: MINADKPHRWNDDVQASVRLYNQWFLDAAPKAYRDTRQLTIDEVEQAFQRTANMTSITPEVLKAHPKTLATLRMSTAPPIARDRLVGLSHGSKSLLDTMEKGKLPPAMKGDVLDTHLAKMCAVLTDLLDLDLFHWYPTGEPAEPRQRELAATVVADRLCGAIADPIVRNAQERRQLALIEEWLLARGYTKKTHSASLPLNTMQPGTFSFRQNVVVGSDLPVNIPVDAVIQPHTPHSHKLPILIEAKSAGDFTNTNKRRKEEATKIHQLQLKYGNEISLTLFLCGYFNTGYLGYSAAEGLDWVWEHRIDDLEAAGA

[2] = molecular target: T2, SalI (Streptomyces albus G) (UniProt Q53608); conditions: NEB3, 37 C; Table 10 prints 4
T2 sequence: T1 sequence with A107R

[3] = tested on: T3, AvrII (Anabaena variabilis); conditions: NEB4, 37 C
T3 sequence: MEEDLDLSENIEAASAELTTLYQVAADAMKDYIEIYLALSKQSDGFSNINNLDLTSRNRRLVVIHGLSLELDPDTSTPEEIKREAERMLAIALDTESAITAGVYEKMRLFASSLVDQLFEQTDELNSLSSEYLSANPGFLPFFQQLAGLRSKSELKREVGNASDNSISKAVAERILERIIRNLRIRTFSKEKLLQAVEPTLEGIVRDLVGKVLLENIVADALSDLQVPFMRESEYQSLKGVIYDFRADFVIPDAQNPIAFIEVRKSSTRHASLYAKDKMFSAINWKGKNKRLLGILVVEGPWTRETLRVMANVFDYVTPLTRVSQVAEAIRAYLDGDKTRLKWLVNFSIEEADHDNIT

[4] = tested on: T4, AvrII-HF Y104F (Anabaena variabilis); conditions: NEB4, 37 C
T4 sequence: T3 sequence with Y104F

[5] = molecular target: T5, PvuII-HF T46G (Proteus vulgaris) (UniProt P23657); conditions: NEB4, 37 C
T5 sequence: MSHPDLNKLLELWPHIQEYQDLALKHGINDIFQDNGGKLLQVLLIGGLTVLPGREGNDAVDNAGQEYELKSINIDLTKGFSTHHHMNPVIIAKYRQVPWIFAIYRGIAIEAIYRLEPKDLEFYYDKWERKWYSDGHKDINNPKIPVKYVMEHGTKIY

[6] = molecular target: T6, BamHI(K30A/K52A) K30A/K52A (Bacillus amyloliquefaciens) (UniProt P23940); conditions: NEB2, 37 C
T6 sequence: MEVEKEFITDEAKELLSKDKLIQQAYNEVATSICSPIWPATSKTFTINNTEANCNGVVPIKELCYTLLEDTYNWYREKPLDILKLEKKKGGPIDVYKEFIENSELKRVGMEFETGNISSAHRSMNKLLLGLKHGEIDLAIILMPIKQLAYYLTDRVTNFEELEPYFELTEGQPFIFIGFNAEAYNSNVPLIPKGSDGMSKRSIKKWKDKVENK

[7] = molecular target: T7, BamHI(K30A/K88A) K30A/K88A (Bacillus amyloliquefaciens) (UniProt P23940); conditions: NEB2, 37 C
T7 sequence: T6 sequence with A52K, K88A

[8] = tested on: T8, BspQI-HF K279P/R388F (Bacillus sphaericus); conditions: NEB4, 50 C
T8 sequence: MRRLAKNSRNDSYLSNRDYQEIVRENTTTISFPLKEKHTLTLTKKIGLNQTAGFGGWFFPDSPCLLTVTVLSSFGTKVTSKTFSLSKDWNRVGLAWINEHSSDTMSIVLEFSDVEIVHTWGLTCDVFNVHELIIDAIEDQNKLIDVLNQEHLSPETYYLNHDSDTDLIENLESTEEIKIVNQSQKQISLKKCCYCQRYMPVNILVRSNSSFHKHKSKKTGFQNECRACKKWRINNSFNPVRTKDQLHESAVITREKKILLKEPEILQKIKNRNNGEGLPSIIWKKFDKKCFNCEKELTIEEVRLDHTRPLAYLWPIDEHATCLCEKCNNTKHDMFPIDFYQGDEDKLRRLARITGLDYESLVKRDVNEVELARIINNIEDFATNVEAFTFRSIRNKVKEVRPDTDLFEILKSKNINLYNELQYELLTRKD

**Q.** HindIII-digested lambda DNA was tested. Which activity (fidelity index) [1] did it give?
**A.** > 2000

**Q.** What about the activity (fidelity index) [2] of the same substance?
**A.** 32

**Q.** How did the activity (fidelity index) [3] turn out when T7 DNA was run?
**A.** 32

**Q.** And the activity (fidelity index) [4]?
**A.** 1000

**Q.** pBR322 was tested. Which activity (fidelity index) [5] did it give?
**A.** 500

**Q.** With pUC19 as the substance, how does the relative cleavage activity (fraction of K30A activity) [6] read?
**A.** 0.1

**Q.** And the relative cleavage activity (fraction of K30A activity) [7]?
**A.** 0.1

**Q.** And the activity (fidelity index) [8]?
**A.** > 4000
